Data as given in patent US20260092091A1.

Molecular target: CXCR2 expressed on 300-19 pre-B cells
Assay: cell-based or functional assay

chemotaxis in Boyden chambers (Transwell), optimal concentration: 50 nM
transendothelial migration in Boyden chambers (EA.hy 926 monolayer), optimal concentration: 50 nM
Substance: human wild-type GCP-2 (granulocyte chemotactic protein 2, CXCL6), recombinant (from UniProt P80162 38-114) (ligand)
